Results: IntAct's records for PubMed 17301792

B1: Translationally-controlled tumor protein homolog (Drosophila melanogaster (Fruit fly)), Q9VGS2 (parent)
chain: MKIYKDIITGDEMFADTYKMKLVDDVIYEVYGKLITRQGDDIKLEGANASAEEADEGTDITSESGVDVVLNHRLTECFAFGDKKSYTLYLKDYMKKVLAKLEEKSPDQVDIFKTNMNKAMKDILGRFKELQFFTGESMDCDGMVALVEYREINGDSVPVLMFFKHGLEEEKC
partner: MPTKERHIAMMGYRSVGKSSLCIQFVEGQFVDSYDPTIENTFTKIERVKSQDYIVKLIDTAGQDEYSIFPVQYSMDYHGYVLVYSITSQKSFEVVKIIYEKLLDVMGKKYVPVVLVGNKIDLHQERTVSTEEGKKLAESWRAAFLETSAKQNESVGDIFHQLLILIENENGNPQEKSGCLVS

Variants of: B1
Details: with rheb_drome Rheb

Row | Variant | effect of a mutation on the interaction
1 | MKIYKDIITGDVMFADTYKMKLVDDVIYEVYGKLITRQGDDIKLEGANASAEEADEGTDITSESGVDVVLNHRLTECFAFGDKKSYTLYLKDYMKKVLAKLEEKSPDQVDIFKTNMNKAMKDILGRFKELQFFTGESMDCDGMVALVEYREINGDSVPVLMFFKHGLEEEKC | decreasing interaction strength

Variants of: B1
Details: with rheb_drome Rheb
Remark: another data set of the same source

Row | Variant | effect of a mutation on the interaction
2 | MKIYKDIITGDVMFADTYKMKLVDDVIYEVYGKLITRQGDDIKLEGANASAEEADEGTDITSESGVDVVLNHRLTECFAFGDKKSYTLYLKDYMKKVLAKLEEKSPDQVDIFKTNMNKAMKDILGRFKELQFFTGESMDCDGMVALVEYREINGDSVPVLMFFKHGLEEEKC | disrupting interaction strength
